The test system of this experiment is P2-P3 promoter region. Briefly: DNase I footprinting of SarA binding to the agr regulatory region. Also noted: species or system Staphylococcus aureus. The conditions noted are these: 40 pM 32P-labeled DNA; regions A1, A2, B1, B2, C1, C2.

Protocol: To test this notion and identify binding sites for SarA in this region, DNase I footprinting was perfomred with the purified SarA. […] The data were quantified by phosphorimaging.
SarA was allowed to bind to the DNA in a reaction mixture containing 40 pM of ^32P-labeled DNA, 10 mM Hepes (pH 7.6), 5 mM MgCl2, 1 mM CaCl2, 1 mM DTT, and 100 mM KCl at room temperature for 30 minutes. An amount of DNase I, which produced approximately 50% non-nicked DNA, was added to the reaction mixture and incubated for 2 minutes. The reaction was quenched by addition of stop solution (80% EtOH, tRNA (1 ug/ml), 0.3 M NH4OAc) and immediately put into a dry ice/EtOH bath for 30 minutes. A visible pellet was obtained after centrifugation and washed with 70% ethanol. Following denaturing gel electrophoresis, the DNA fragments were detected and quantified by phosphoimaging. The radioactivity in the bands for samples containing SarA was subtracted from the no protein control using Microsoft Excel. The concentration of SarA required to protect a cleavage site fully was determined. To identify the regions of protection within the inter-promoter region, purine sequencing was included in the analysis. Chemical sequencing was done according to standard procedures.

B1: SarA: purified full-length recombinant S. aureus (strain DB) SarA protein expressed in E. coli (protein)
chain: AITKINDCFELLSMVTYADKLKSLIKKEFSSISFEEFAVLTYISENKEKEYYLKDIINHLNYKQPQVVKAVKILSQEDYDKKRNEHDERTVLILVNAQQRKKIESLLSRVNKRITEANNEIEL
Turning to B1, the “SarA concentration at which the footprinted regions were protected by more than 50%” value was in the range of 3 to 6 pM.

The values above are taken from US6699662B1, “Inhibitors of staphylococcus SarA protein function involved in the expression of staphylococcal virulence factors and the use thereof in treating staphylococcal infections” (priority 1999, dated 2004).
